Data on 1 molecule can be found in paper PMC9926331 (Journal of Molecular Cell Biology, 2022).

The test concerns the target GST-TIP60 (human, UniProt Q92993 1-513). Nature of the test: pull-down.

GST-TIP60, sequence (Q92993 whole entry): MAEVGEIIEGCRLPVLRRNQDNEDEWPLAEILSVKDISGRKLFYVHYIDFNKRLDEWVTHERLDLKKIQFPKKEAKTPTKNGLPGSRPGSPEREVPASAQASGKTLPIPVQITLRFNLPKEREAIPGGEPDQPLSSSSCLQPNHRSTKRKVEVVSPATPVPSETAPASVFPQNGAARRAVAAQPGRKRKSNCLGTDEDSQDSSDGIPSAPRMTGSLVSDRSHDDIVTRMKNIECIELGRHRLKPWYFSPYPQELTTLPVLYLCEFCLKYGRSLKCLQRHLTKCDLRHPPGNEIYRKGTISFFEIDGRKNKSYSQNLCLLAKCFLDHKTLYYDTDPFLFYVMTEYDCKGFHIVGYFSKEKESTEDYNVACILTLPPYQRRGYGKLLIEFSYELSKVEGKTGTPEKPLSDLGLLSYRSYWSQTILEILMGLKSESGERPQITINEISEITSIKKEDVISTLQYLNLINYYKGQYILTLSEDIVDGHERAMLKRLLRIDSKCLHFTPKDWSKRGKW

B1: MBP-Nup62-CT (domain or fragment, human, UniProt P37198 329-522, looked up)
chain: TYAQLESLINKWSLELEDQERHFLQQATQVNAWDRTLIENGEKITSLHREVEKVKLDQKRLDQELDFILSQQKELEDLLSPLEELVKEQSGTIYLQHADEEREKTYKLAENIDAQLKRMAQDLKDIIEHLNTSGAPADTSDPLQQICKILNAHMDSLQWIDQNSALLQRKVEEVTKVCEGRRKEQERSFRITFD
On to B1, for which the binding result is recorded as “binds”.
